Measurements from PMC10267580.

Biological target: Rab6B^Q72L, GTPase domain (residues 8-176), constitutively active mutant (mouse) (UniProt P61294)
Assay: ITC; MicroCal PEAQ-ITC, 25 °C, 50 mM Tris pH 7.5, 100 mM NaCl, 2 mM MgCl2; typically one protein (400 μM) in the syringe into its binding protein (40 μM) in the cell

Rab6B^Q72L, GTPase domain (residues 8-176), constitutively active mutant (mouse), sequence (P61294 8-176 Q72L): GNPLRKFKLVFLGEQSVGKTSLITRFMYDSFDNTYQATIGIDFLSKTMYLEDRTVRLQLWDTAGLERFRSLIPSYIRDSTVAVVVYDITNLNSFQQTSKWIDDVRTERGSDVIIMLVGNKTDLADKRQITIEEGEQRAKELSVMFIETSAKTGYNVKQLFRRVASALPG

Kd: 8 µM
Substance: ELKS2_RBD, the region of ELKS2 corresponding to ELKS1 residues 849-922 (domain or fragment)
